Values belong to the substance of their own block, whether it stands above or below them.
Legend:
[1] = target: MART126(27L)-35 pG6-Sarc/HLA-A2 (UniProt Q16655); assay: SPR steady state, TCR immobilised, pMHC injected
[2] = target: MART126(27L)-35 pE1F/HLA-A2 (UniProt Q16655); assay: SPR steady state (Biacore 3000), TCR immobilised, pMHC injected; relative to the unsubstituted ELA peptide
[3] = target: MART126(27L)-35 pE1A/HLA-A2 (UniProt Q16655); assay: as above
[4] = target: MART126(27L)-35 pG6-Sarc/HLA-A2 (UniProt Q16655); assay: as above
[5] = target: MART126(27L)-35 pT9A/HLA-A2 (UniProt Q16655); assay: as above
[6] = target: MART126(27L)-35 pE1D/HLA-A2 (UniProt Q16655); assay: as above
[7] = target: MART126(27L)-35 pI5E/HLA-A2 (UniProt Q16655); assay: as above
[8] = target: MART126(27L)-35 pE1Q/HLA-A2 (UniProt Q16655); assay: as above
DMF5 TCR = assay: SPR binding of MART126(27L)-35 peptide variants/HLA-A2 to DMF5 TCR; details: ELA peptide substitution vs native peptide, SPR steady state, 25° C.
Description: Briefly, the TCR a and b chains, the HLA-A2 heavy chain, and b2-microglobulin (b2m) were generated in Escherichia coli as inclusion bodies, which were isolated and denatured in 8 M urea. TCR a and b chains were diluted in TCR refolding buffer (50 mM Tris (pH 8), 2 mM EDTA, 2.5 M urea, 9.6 mM cysteamine, 5.5 mM cystamine, 0.2 mM PMSF) at a 1:1 ratio. HLA-A2 and b2m were diluted in MHC refolding buffer (100 mM Tris (pH 8), 2 mM EDTA, 400 mM L-arginine, 6.3 mM cysteamine, 3.7 mM cystamine, 0.2 mM PMSF) at a 1:1 ratio in the presence of excess peptide. TCR and pMHC complexes were incubated for 24 h at 4° C. Afterward, complexes were desalted by dialysis at 4° C. and room temperature respectively, then purified by anion exchange followed by size-exclusion chromatography. Refolded protein absorptions at 280 nm were measured spectroscopically and concentrations determined with appropriate extinction coefficients. Mutations in TCR a and b chains were generated by whole-plasmid mutagenesis and confirmed by sequencing. Peptides were synthesized and purified commercially.
Surface plasmon resonance: Surface plasmon resonance experiments were performed with a Biacore 3000 instrument using CMS sensor chips as previously described^15. In all studies, TCR was immobilized to the sensor chip via standard amine coupling and pMHC complex was injected as analyte. Studies were performed at 25° C. in 20 mM HEPES (pH 7.4), 150 mM NaCl, 0.005% Nonidet P-20. All studies were steady-state experiments measuring RU vs. concentration of injected analyte, and were performed with TCRs coupled onto the sensor chip at 400-2000 response units. Injected pMHC spanned a concentration range of 0.1-150 μM at flow rates of 5 μl/min. Data were processed with BioEvaluation 4.1 and fit using a 1:1 binding model utilizing MATLAB 2015b.
Next, eight MART126(27L)-35 peptide variants with a broad range of complex scores were selected for experimental testing with DMF5. A peptide was also examined with a non-standard sarcosine (N-methyl glycine) substituted for Gly6 of the peptide to help test the implications of treating structured water explicitly in the DMF5 interface as discussed above and shown in FIG. 5.

MART126(27L)-35/HLA-A2 = MART126(27L)-35/HLA-A2 (UniProt Q16655); assay: SPR steady state (Biacore 3000), TCR immobilised, pMHC injected; relative to wild type

Substance: DMF5 TCR (wild type, soluble)
fold affinity enhancement over the unsubstituted peptide [1]: 3 fold
ΔΔG° [2]: 2.26 kcal/mol
ΔΔG° [3]: 0.06 kcal/mol
ΔΔG° [4]: -0.58 kcal/mol
ΔΔG° [5]: 1.6 kcal/mol
ΔΔG° [6]: 1.3 kcal/mol
ΔΔG° [7]: 3.07 kcal/mol
ΔΔG° [8]: 1 kcal/mol

Substance: pE1F: MART126(27L)-35 (ELA) peptide with E1F substitution, presented by HLA-A2 (FLAGIGILTV; MART-1 26-35 peptide; UniProt Q16655 26-35, looked up, variant A27L E26F)
ΔΔG° (DMF5 TCR): 2.26 kcal/mol

Substance: DMF5 TCR T54αI
ΔΔG° (MART126(27L)-35/HLA-A2): 0.33 kcal/mol

Substance: pT9W: MART126(27L)-35 (ELA) peptide with T9W substitution, presented by HLA-A2 (ELAGIGILWV; MART-1 26-35 peptide; UniProt Q16655 26-35, looked up, variant A27L T34W)
ΔΔG° (DMF5 TCR): >3 kcal/mol

More lines, now with the values ahead:

ΔΔG° (DMF5 TCR): 1.3 kcal/mol
Substance: pE1D: MART126(27L)-35 (ELA) peptide with E1D substitution, presented by HLA-A2 (DLAGIGILTV; MART-1 26-35 peptide; UniProt Q16655 26-35, looked up, variant A27L E26D)

ΔΔG° (DMF5 TCR): 1.0 kcal/mol
Substance: PE1Q: MART126(27L)-35 (ELA) peptide with E1Q substitution, presented by HLA-A2 (QLAGIGILTV; MART-1 26-35 peptide; UniProt Q16655 26-35, looked up, variant A27L E26Q)

ΔΔG° (DMF5 TCR): 3.07 kcal/mol
Substance: pI5E: MART126(27L)-35 (ELA) peptide with I5E substitution, presented by HLA-A2 (ELAGEGILTV; MART-1 26-35 peptide; UniProt Q16655 26-35, looked up, variant A27L I30E)
